CAR+ data for seven molecules are collected here from patent publication US20220396628A1.

Test [1] deals with anti-CLL-1 CAR (chimeric antigen receptor presenting the anti-CLL-1 scFv), expressed on primary human T cells. Put plainly: flow cytometry histogram; hybridoma clonal supernatant on anti-CLL-1 CAR-transduced primary human T cells, detected with FITC goat anti-rabbit F(ab')2; fraction of events in the CAR+ gate.
For test [2], the target named is control CAR 2, expressed on T cells. Put plainly: flow cytometry histogram; hybridoma clonal supernatant on control CAR 2-expressing T cells, detected with FITC goat anti-rabbit F(ab')2; fraction of events in the CAR+ gate.
Test [3] addresses control CAR3, expressed on T cells. Put plainly: flow cytometry histogram; hybridoma clonal supernatant on control CAR 3-expressing T cells, detected with FITC goat anti-rabbit F(ab')2; fraction of events in the CAR+ gate. On the set-up: unit not given here. In general terms: In flow cytometry, cells or beads pass a laser one at a time.

B1: KIP-10 Clone 160-1 (antibody, V domains shown)
VH: QSLEESGGDLVKPGASLTLTCTASGFSFSSNYFVCWVRQAPGKGLEWVGCINPGSGRTYSASWAKGRFTISKSSSTTVTLQMTSLTAADTATYFCARDRPGSDDYYMRDLWGPGTLVTVSS
VL: DPVMTQTPASVSEPVGGTVTINCQASESIGSSLAWYQQKPGQPPKLLIYAASTLASGVSSRFKGSGSGTQFTLTISDLECADAATYYCQCSYYLNTYVGNPFGGGTEVVVK
As to B1, the CAR+ in test [1] came out at 55.6; in test [2] it was 0.021; in test [3], 0.011.

B2: KIP-10 Clone 147-1 (antibody, V domains shown)
VH: QEQLEESGGDLVKPEGSLTLTCTASGFSFSGDYYMCWVRQAPGKGLEWIACIYVGSYIYSFYASWAKGRFTISRTSSTTVTLQMTSLTAADTATYFCARDPFATDSDVVSLWGPGTLVTVSS
VL: AVVLTQTPASVSAAVGGTVTINCQASQSISTVLAWYQQKPGQRPKLLIYWASTLASGVPSRFKGSGSGTQFTLTISGVECDDAATYYCAGYKSYSNDDGAFGGGTEVVVK
Consider B2, for which the CAR+ turned out to be 57.7 in test [1], 0.053 in test [2] and 0.011 in test [3].

B3: KIP-10 Clone 103-2 (antibody, V domains shown)
VH: QSVEESGGRLVTPGTPLTLTCTVSGFSLGSYYMSWVRQAPGKGLEWIGIIYQSGNTDYASWAKGRFTISKTSSTTVDLKMTSLTTEDTATYFCAREGYAGYVGYSYNIWGPGTLVTVSS
VL: AYDMTQTPASVSAAVGGTVSINCQASEDIESYLAWYQQRPGQPPKLLIYSASTLASGVSSRFKGSGSGTQFTLTISDLECADAATYYCQQGASSNDVEEPFGGGTEVVVK
For B3, the CAR+ turned out to be 55.9 in test [1] and 0.011 in test [2].

B4: KIP-10 Clone 180-2 (antibody, V domains shown)
VH: QSLEESGGGLVQPGGSLKLSCKASGFIFSDNYYMCWVRQAPGKGLELIACIYGGHIDTTYYASWVSGRFTSSKTSSTTVTLQLTSLTAADTATYFCARRTIYDDNDDYSYALHLWGPGTLVTVSS
VL: ALVMTQTPSSVSEPVGGTVTINCQASQSISNLLAWYQQKPGQPPKLLIYGASNLESGVPSRFKGSGSGTEYTLTISGVECADAATYYCQQGDSSSNLDNTFGGGTEVVVK
For the molecule B4, the figures for the CAR+ in test [1] and in test [3] were 57.7 and 0.011, respectively.

B5: KIP-10 Clone 15-2 (antibody, V domains shown)
VH: QEQLVESGGGLVKPGASLTLTCKASGFSFSVGYDMCWVRQAPGKGLEWIACIDTDSSSRTWNASWAKGRFTISKPSSTTVTLQMTSLTAADTATYFCARNDDTSGWGSKLWGPGTLVTVSS
VL: DVVMTQTPASVSEPVGGTVTIKCQASQTIGSALAWYQQKPGQPPKLLIYTASNLASGVSSRFKGSRSGTEFTLTISDLECADAATYYCQHTFYGTSYVDAFGGGTEVVVK
B5: the values for the CAR+ in test [1], in test [2] and in test [3] were 58, 0.063 and 0.011, respectively.

B6: KIP-10 Clone 148-4 (antibody, V domains shown)
VH: QEQLEESGGDLVKPEGSLTLTCTASGFSFSGSFDVCWVRQAPGKGLEWIACIVVDSSDRTWYASWAKGRFTISKPSSTTVTLQMTSLTAADTATYFCARNDDTSGWGFNLWGPGTLVTVSS
VL: DVTMTQTPASVSEPVGGTVTIKCQASQSIGSALAWYQQKPGQPPKLLIWTASNLASGVSSRFKGSRSGTDFTLTISDLECADAATYYCQCTYYGSSYINAFGGGTEVVVK
Regarding B6, the CAR+ in test [1] turned out to be 55.8; in test [2] it was 0.021; in test [3] it was 0.011.

B7: KIP-10 Clone 63-2 (antibody, V domains shown)
VH: QQQLEESGGGLVKPGGTLTLTCKASGFSFSSDYDMCWVRQAPGKGLEWIACIYAGSSDNTYYATWAKGRFTISKTSSTTVTLQMTSLTAADTATYFCARDTADINFYFKLWGPGTLVTVSS
VL: DIVMTQTPASVSAAVGGTVTIKCQASESVSRWLAWYQQKPGQPPNLLIYSASTLASGVPSRFRGSGSGTEYTLTISDLECADAATYYCQGGYYSGGETYHNSFGGGTEVVVK
For B7, the CAR+ in test [1] is 57.8; in test [2] it was 0.021.
